Data as given in patent US12448610B2, “Preparation of glycosyltransferase UGT76G1 mutant and use thereof” (CAS Center for Excellence in Molecular Plant Sciences, priority 2019, dated 2025).
Substitutions are numbered along the chain they refer to. Numbers in names are those of the source.

B1: wild-type UGT76G1: wild-type glycosyltransferase UGT76G1 derived from Stevia rebaudiana, amino acid sequence of SEQ ID NO: 1 (protein, listed as Stevia rebaudiana)
chain: MENKTETTVRRRRRIILFPVPFQGHINPILQLANVLYSKGFSITIFHTNFNKPKTSNYPHFTFRFILDNDPQDERISNLPTHGPLAGMRIPIINEHGADELRRELELLMLASEEDEEVSCLITDALWYFAQSVADSLNLRRLVLMTSSLFNFHAHVSLPQFDELGYLDPDDKTRLEEQASGFPMLKVKDIKSAYSNWQILKEILGKMIKQTKASSGVIWNSFKELEESELETVIREIPAPSFLIPLPKHLTASSSSLLDHDRTVFQWLDQQPPSSVLYVSFGSSSEVDEKDFLEIARGLVDSKQSFLWVVRPGFVKGSTWVEPLPDGFLGERGRIVKWVPQQEVLAHGAIGAFWTHSGWNSTLESVCEGVPMIFSDFGLDQPLNARYMSDVLKVGVYLENGWERGEIANAIRRVMVDEEGEYIRQNARVLKQKADVSLMKGGSSYESLESLVSYISSL
B2: L204F: glycosyltransferase UGT76G1 mutant, mutation of L at 204th to F (SEQ ID NO: 4) (protein)
chain: B1 chain with L204F
modifications: Variant
B3: G87F: glycosyltransferase UGT76G1 mutant, mutation of G at 87th to F (SEQ ID NO: 2) (protein)
chain: B1 chain with G87F
modifications: Variant
B4: I199F: glycosyltransferase UGT76G1 mutant, mutation of I at 199th to F (SEQ ID NO: 3) (protein)
chain: B1 chain with I199F
modifications: Variant
B5: L379W: glycosyltransferase UGT76G1 mutant, mutation of L at 379th to W (SEQ ID NO: 5) (protein)
chain: B1 chain with L379W
modifications: Variant

Tests used:
Format in all cases: biochemical
[1] = Enzymic reaction of UGT76G1 wild-type and mutants in vitro, substrate orientin, products detected by HPLC; conditions: in words
Experimental: (§1) The enzymic reaction system (50 μL) includes: 5 μg protein, 1.5 mM UDP-glucose, 250 μM glycosyl acceptor substrate isoorientin, orientin, apigenin or luteolin, and Buffer A (20 mM Tris-HCl, pH=8.0, 100 mM NaCl). The reaction of each mutant protein for the same substrate was repeated three times. Reaction conditions: 37° C. overnight. The reaction was quenched with an equal volume of methanol. After vigorous shaking, the reaction was centrifuged at 12000 rpm for 30 min. The supernatant was used for HPLC detection. Detection method: mobile phase A (acetonitrile, containing 0.1% formic acid)—mobile phase B (water, containing 0.1% formic acid) gradient elution. Chromatographic conditions: gradient elution from initial 5% A to 50% A within 11 min, elution at 100% A for 4 min, and back to 5% A within 1 min for equilibration for 4 min. The peak area of the catalytic product of the mutant was calculated and compared with the peak area of the catalytic product of wild-type UGT76G1.

[2] = Enzymic reaction of UGT76G1 wild-type and mutants in vitro, substrate isoorientin, products detected by HPLC; conditions: for conversion efficiency of isoorientin (compound 1): HPLC analysis of FIG. 1; for conversion efficiency of isoorientin (compound 1) / glycosylation efficiency: in words; for yield of compound 2 as compared with the wild type / yield of compound 3 as compared with the wild type: substrate isoorientin 250 μM, 5 μg protein, 1.5 mM UDP-glucose, 37° C. overnight, HPLC peak area, 100% for the wild type; for glycosylation efficiency: substrate isoorientin, versus wild type
Experimental: The enzyme activity of the glycosyltransferase UGT76G1 mutant can be detected by a technique known in the art. In a specific example of the present invention, the enzyme reaction system with the same conditions is used to detect the enzyme activity of different mutants in vitro. After the reaction, the product was detected by HPLC. The change of a mutant's catalytic activity was analyzed by comparing the relative conversion ratio of the flavonoid isoorientin by the mutant and the wild-type protein.
as §1

[3] = Enzymic reaction of UGT76G1 wild-type and mutants in vitro, substrate luteolin, products detected by HPLC; conditions: HPLC analysis of FIG. 8; compared with wild-type (WT) or mutants I90L, I199L; in words
Experimental: as §1

[4] = Enzymic reaction of UGT76G1 wild-type and mutants in vitro, substrate apigenin, products detected by HPLC; conditions: HPLC analysis of FIG. 7; compared with wild-type (WT) or mutants I90L, I199L; in words
Experimental: as §1

[5] = substrate orientin, versus wild type

Molecule	conversion rate for orientin (compound 4) ([1]; HPLC analysis of FIG. 5)	conversion efficiency of isoorientin (compound 1) [2]	glycosylation products of luteolin (compound 8) [3]	production efficiency of product 5 [1, 5]	glycosylation products of apigenin (compound 7) [4]	yield of compound 2 as compared with the wild type [2] [%]	yield of compound 3 as compared with the wild type [2] [%]	glycosylation efficiency [2]	production efficiency of product 6 [1, 5]
B1	a certain conversion rate	low	–	–	–	–	–	–	–
B2	–	–	significantly different from those converted by wild-type	can increase	significantly different from those converted by wild-type	285	159	significantly increased	–
B3	–	relatively the highest	significantly different from those converted by wild-type	–	significantly different from those converted by wild-type	1381	1235	significantly increased	–
B4	–	–	–	–	–	799	278	significantly increased	–
B5	–	–	–	–	–	–	–	–	can increase
